Laboratory results taken from the supplement of paper PMC9170038.

How the values were obtained:
[1] = test system: MS2 coat protein; assay: apparent KD of MS2 coat protein, switch ON state; designed switch direction (-1 OFF switch, 1 ON switch): -1; higher = weaker reporter binding; conditions: FMN input: 0 or 200 uM; Eterna round: R93 (includes R88 designs)
Method in brief: (§1)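 Titration buffer: 100 mM Tris-HCl pH 7.5, 80 mM KCl, 4 mM MgCl2, without or with constant ligand. Designed RNA switches transcribed on-chip from Illumina sequencing clusters received SNAP-549-labelled MS2 coat protein in twofold steps from 0.7 or 1.5 nM to 3 µM. Apparent KD is the median per design of fits to normalised cluster binding curves.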

[2] = test system: MS2 coat protein; assay: apparent KD of MS2 coat protein, switch OFF state (with FMN for OFF switches, without FMN for ON switches); designed switch direction (-1 OFF switch, 1 ON switch): -1; higher = weaker reporter binding; conditions: FMN input: 0 or 200 uM; Eterna round: R93 (includes R88 designs)
Method in brief: as §1

## GCAUGCGAAGGAUAUACAUGAGGAUCACCCAUGUGAGAGAAAAAAGUGAGAAAGAAAAGUAGAAGGUCGUGUGG [salish99-ex3-94]
[1]
  apparent KD of MS2 coat protein: 0.0407 µM
[2]
  apparent KD of MS2 coat protein: 0.0709 µM

## GCUGUCGAAGGAUAUACAUGAGGAUCACCCAUGUGAGAGAAAAAAGUGAGAAAGAAAAGUAGAAGGUCGGUAGG [salish99-ex3-97]
[1]
  apparent KD of MS2 coat protein: 0.0296 µM
[2]
  apparent KD of MS2 coat protein: 0.0357 µM

## GGAAAACAUGAGGAUCACCCAUGUAAGGAUAUGCAAAAAAAAAAAGGAUAUAGAAGGAGCAGAAGGUACAAAGG [salish99-ex1-29]
[1]
  apparent KD of MS2 coat protein: 0.0362 µM
[2]
  apparent KD of MS2 coat protein: 0.057 µM

## GGAAAACAUGAGGAUCACCCAUGUAAGGAUAUGCAAAAAAGGAUAUAGAAGGAAAAAAGCAGAAGGUACAAAGG [salish99-ex1-23]
[1]
  apparent KD of MS2 coat protein: 0.0271 µM
[2]
  apparent KD of MS2 coat protein: 0.0698 µM

## GGAAAGUCAGGAUAUGGAUAAUAAAUACAAAUAGAAACAAACCAGAAGGGACAUGAGGAUCACCCAUGUAAACA [Exclusion 4 Electric]
[1]
  apparent KD of MS2 coat protein: 0.0353 µM
[2]
  apparent KD of MS2 coat protein: 0.0226 µM

## GGAAAGUGAGGAUAUGCAUAACAAACACAAACACAAACAAAGCAGAAGGCACAUGAGGAUCACCCAUGUAAACA [Exclusion 4 Willow]
[1]
  apparent KD of MS2 coat protein: 0.0235 µM
[2]
  apparent KD of MS2 coat protein: 0.0223 µM

## GGUGGCGUAGGAUAUACAUGAGGAUCACCCAUGUGAGAGAAAAAAGUGAGAAAGAAAAGUAGAAGGACGUUACG [salish99-ex3-126]
[1]
  apparent KD of MS2 coat protein: 0.0403 µM
[2]
  apparent KD of MS2 coat protein: 0.147 µM

## GGUUGGCGAGGAUAUACAUGAGGAUCACCCAUGUGAGAGAAAAUAGUGAGAAAGAAAAGUAGAAGGCGCUGACG [salish99-ex3-42]
[1]
  apparent KD of MS2 coat protein: 0.113 µM
[2]
  apparent KD of MS2 coat protein: 0.235 µM

## GGUUGGCGAGGAUAUACAUGAGGAUCACCCAUGUGAGAGGAAAAAGUGAGGAGGAGAAGUAGAAGGCGCUGACG [salish99-ex3-22]
[1]
  apparent KD of MS2 coat protein: 0.0296 µM
[2]
  apparent KD of MS2 coat protein: 0.138 µM

## GUAAACCUAGGAUAUACAUGAGGAUCACCCAUGUAAAAAAUAAUAAAAAGAAAAAAAAGUAGAAGGAGGUAGAU [JR_Exc003_Sub1226]
[1]
  apparent KD of MS2 coat protein: 0.0291 µM
[2]
  apparent KD of MS2 coat protein: 0.044 µM

## GUAGUGUGAGGAUAUGGAUAGAAGAAGUGAAAGUAAGAGAACUAGAAGGCACAUGAGGAUCACCCAUGUAUGUG [JR_Exc004_Sub1701]
[1]
  apparent KD of MS2 coat protein: 0.0414 µM
[2]
  apparent KD of MS2 coat protein: 0.0533 µM

## GUGUACAGAGGAUAUACGGGAGCUAGGAAACUAGCAACCUCACAUGAGGAUCACCCAUGUAGAAGGCUGUACAC [Ex2: 752]
[1]
  apparent KD of MS2 coat protein: 0.159 µM
[2]
  apparent KD of MS2 coat protein: 0.799 µM

## UAAAAACAUGAGGAUCACCCAUGUGAGGAUAUGUACGAAAUAAAUAAAAAAUAAAAGUACAGAAGGCACAAAAU [Mat - Exclusion 1 - Eli mod - D6]
[1]
  apparent KD of MS2 coat protein: 0.037 µM
[2]
  apparent KD of MS2 coat protein: 0.0526 µM

## UAAAGACAUGAGGAUCACCCAUGUGAGGAUAUAGGUGUAUGCAAAAAAAAGUUAAAAACUAGAAGGCACAGAAA [JR_Exc001_Sub305]
[1]
  apparent KD of MS2 coat protein: 0.066 µM
[2]
  apparent KD of MS2 coat protein: 0.0425 µM

## UAAAGACAUGAGGAUCACCCAUGUGAGGAUAUCGGAGAUGACGGAACAUCGAGUUCGGCGAGAAGGCGCAGGAA [JR_Exc001_Sub407]
[1]
  apparent KD of MS2 coat protein: 0.0301 µM
[2]
  apparent KD of MS2 coat protein: 0.0292 µM

## UACAGACAUGAGGAUCACCCAUGUGAGGAUAUUCAUAACGAUAUUACAAGUAUGACAGGAAGAAGGCACAGCAA [JR_Exc001_Sub010]
[1]
  apparent KD of MS2 coat protein: 0.045 µM
[2]
  apparent KD of MS2 coat protein: 0.0475 µM

## UAUAACGAAGGAUAUACUAACGAAACUAAUGCAUAUAUAUAACAUGAGGAUCACCCAUGUAGAAGGUCGAGAAU [JR_Exc002_Sub011]
[1]
  apparent KD of MS2 coat protein: 0.0237 µM
[2]
  apparent KD of MS2 coat protein: 0.0288 µM

## UAUAGACAUGAGGAUCACCCAUGUGAGGAUAUCGGUGACUACAGGACAUCACGUACAAUGAGAAGGCACAGAAA [JR_Exc001_Sub017]
[1]
  apparent KD of MS2 coat protein: 0.0403 µM
[2]
  apparent KD of MS2 coat protein: 0.0442 µM

## UAUGAGCGAGGAUAUGCUUGGGACUGUCGGAAGGUGGCGGGACAUGAGGAUCACCCAUGUAGAAGGCGCGAGCG [Harteesian Tree]
[1]
  apparent KD of MS2 coat protein: 0.0598 µM
[2]
  apparent KD of MS2 coat protein: 0.0674 µM

## UCCGGACAUGAGGAUCACCCAUGUGAGGAUAUAUAACGUGGGACUGGAAACAAUCCCAAUAGAAGGCACAUGAC [Reisatridi]
[1]
  apparent KD of MS2 coat protein: 0.0215 µM
[2]
  apparent KD of MS2 coat protein: 0.0202 µM

## UCCUCACAUGAGGAUCACCCAUGUGAGGAUAUGUACAUCAGGAAAAAAAAACUGAUGUACAGAAGGCACAUGGA [Design 9: Super Stable G-C 2]
[1]
  apparent KD of MS2 coat protein: 0.0159 µM
[2]
  apparent KD of MS2 coat protein: 0.0112 µM

## UUUAAGUCAGGAUAUUCGGAUAGGAAAACGAAAACCUAUCCGAAGAAGGGACAUGAGGAUCACCCAUGUAAAAA [Starry Exclusion 4.3 (cataway round 1 mod)]
[1]
  apparent KD of MS2 coat protein: 0.0521 µM
[2]
  apparent KD of MS2 coat protein: 0.0563 µM
